According to patent US20210130436A1 (published 2021):

Columns and labels:
[1] = biological target: T1, CD28 endogenously expressed on Jurkat/IL2 reporter cells (human, UniProt P10747 19-220); test: flow cytometry, Jurkat cells (CD28), Fc fusion at 33.3 nM
T1 construct: whole, on cells; Target on Jurkat cells; also called Jurkats (CD28)

[2] = biological target: T2, human CTLA4 expressed on CHO cells (human, UniProt P16410 36-223); test: flow cytometry, CHO cells stably expressing CTLA4, Fc fusion at 33.3 nM
T2 construct: whole, on cells; Target on CHO cells stably expressing CTLA4; also called huCTLA4
T2 sequence (P16410 36-223): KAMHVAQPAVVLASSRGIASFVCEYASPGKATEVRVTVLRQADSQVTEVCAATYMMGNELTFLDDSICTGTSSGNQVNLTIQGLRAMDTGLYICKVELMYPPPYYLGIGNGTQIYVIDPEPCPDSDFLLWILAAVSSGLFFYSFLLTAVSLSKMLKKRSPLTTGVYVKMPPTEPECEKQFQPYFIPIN

[3] = biological target: T3, human PD-L1 expressed on CHO cells (human, UniProt Q9NZQ7 19-290); test: flow cytometry, CHO cells stably expressing PD-L1, Fc fusion at 33.3 nM
T3 construct: whole, on cells; Target on CHO cells stably expressing PD-L1; also called huPD-L1
T3 sequence (Q9NZQ7 19-290): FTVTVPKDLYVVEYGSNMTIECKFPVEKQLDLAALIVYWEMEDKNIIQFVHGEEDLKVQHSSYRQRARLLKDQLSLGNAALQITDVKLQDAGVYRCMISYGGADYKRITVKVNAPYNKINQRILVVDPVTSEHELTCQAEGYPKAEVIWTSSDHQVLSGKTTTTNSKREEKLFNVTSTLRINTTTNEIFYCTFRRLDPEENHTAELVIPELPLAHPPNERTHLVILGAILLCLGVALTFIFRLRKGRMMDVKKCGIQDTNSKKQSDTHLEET

[4] = biological target: T4, human CD28 (human, UniProt P10747 19-220); test: flow cytometry MFI relative to WT CD80 IgV-Fc, Jurkat cells (CD28), 33.3 nM
T4 construct: whole, on cells; Jurkat/IL2 reporter cells, which endogenously express CD28

[5] = biological target: T5, human CTLA-4 (human, UniProt P16410 36-223); test: flow cytometry, CHO cells stably expressing huCTLA-4, 33.3 nM Fc fusion, PE anti-human Fc
T5 construct: whole, on cells; CHO cells stably expressing huCTLA4; also called huCTLA4
T5 sequence (P16410 36-223): as the sequence (P16410 36-223) above

[6] = biological target: T6, human PD-L1 (human, UniProt Q9NZQ7 19-290); test: flow cytometry MFI relative to WT CD80 IgV-Fc, CHO/huPD-L1 cells, 33.3 nM
T6 construct: whole, on cells; CHO cells stably expressing huPD-L1; also called huPD-L1
T6 sequence (Q9NZQ7 19-290): as the sequence (Q9NZQ7 19-290) above

[7] = biological target: T5, human CTLA-4; test: flow cytometry MFI relative to WT CD80 IgV-Fc, CHO/huCTLA-4 cells, 33.3 nM
[8] = biological target: T4, human CD28; test: flow cytometry, Jurkat/IL2 reporter cells (endogenous CD28), 33.3 nM Fc fusion, PE anti-human Fc
[9] = biological target: T6, human PD-L1; test: flow cytometry, MFI on CHO/huPD-L1 cells divided by MFI on Jurkat cells (CD28), 33.3 nM
[10] = biological target: T6, human PD-L1; test: flow cytometry, CHO cells stably expressing huPD-L1, 33.3 nM Fc fusion, PE anti-human Fc

| Binder | MFI at 33.3 nM [1] | MFI at 33.3 nM [2] | MFI at 33.3 nM [3] | Fold change to WT CD80 [4] | MFI at 33.3 nM [5] | Fold change to WT CD80 [6] | Fold change to WT CD80 [7] | MFI at 33.3 nM [8] | Ratio of PDL1:CD28 [9] | MFI at 33.3 nM [10] |
| --- | --- | --- | --- | --- | --- | --- | --- | --- | --- | --- |
| CD80 E35D/M47V/K89N IgV-Fc (Fc fusion, not shown: small tags and cut ends; a dimerising Fc or GST) VIHVTKEVKEVATLSCGHNVSVEELAQTRIYWQKDKKMVLTMMSGDVNIWPEYKNRTIFDITNNLSIVILALRPSDEGTYECVVLKYENDAFKREHLAEVTLSVKAD | 507 MFI | 39300 MFI | 4340 MFI | – | – | – | – | – | – | – |
| variant CD80 IgV-Fc (inert) H18V/E35D/M47V/V68M/A71G/D90G (Fc fusion, not shown: inert human IgG1 Fc) VIHVTKEVKEVATLSCGVNVSVEELAQTRIYWQKDKKMVLTMMSGDVNIWPEYKNRTIFDITNNLSIMILGLRPSDEGTYECVVLKYEKGAFKREHLAEVTLSVKAD | – | – | – | 20.7 fold | 16800 MFI | 264 fold | 12.1 fold | 2120 MFI | 20.6 ratio | 43600 MFI |
| variant CD80 IgV-Fc (inert) H18V/A26Q/E35D/M47V/V68L/A71G/D90G (Fc fusion, not shown: inert human IgG1 Fc) VIHVTKEVKEVATLSCGVNVSVEELQQTRIYWQKDKKMVLTMMSGDVNIWPEYKNRTIFDITNNLSILILGLRPSDEGTYECVVLKYEKGAFKREHLAEVTLSVKAD | – | – | – | 30.6 fold | 17700 MFI | 204 fold | 12.8 fold | 3130 MFI | 10.7 ratio | 33600 MFI |
| variant CD80 IgV-Fc (inert) H18F/A26D/E35D/D46E/M47T/V68M/A71G/D90G (Fc fusion, not shown: inert human IgG1 Fc) VIHVTKEVKEVATLSCGFNVSVEELDQTRIYWQKDKKMVLTMMSGETNIWPEYKNRTIFDITNNLSIMILGLRPSDEGTYECVVLKYEKGAFKREHLAEVTLSVKAD | – | – | – | 59.1 fold | 17200 MFI | 167 fold | 12.4 fold | 6030 MFI | 4.6 ratio | 27500 MFI |
| variant CD80 IgV-Fc (inert) H18T/A26N/E35D/M47L/V68M/A71G (Fc fusion, not shown: inert human IgG1 Fc) VIHVTKEVKEVATLSCGTNVSVEELNQTRIYWQKDKKMVLTMMSGDLNIWPEYKNRTIFDITNNLSIMILGLRPSDEGTYECVVLKYEKDAFKREHLAEVTLSVKAD | – | – | – | 13.4 fold | 20900 MFI | 415 fold | 15.1 fold | 1370 MFI | 50.1 ratio | 68500 MFI |
| variant CD80 IgV-Fc (inert) H18C/A26P/E35D/M47L/V68M/A71G (Fc fusion, not shown: inert human IgG1 Fc) VIHVTKEVKEVATLSCGCNVSVEELPQTRIYWQKDKKMVLTMMSGDLNIWPEYKNRTIFDITNNLSIMILGLRPSDEGTYECVVLKYEKDAFKREHLAEVTLSVKAD | – | – | – | 18.7 fold | 23400 MFI | 406 fold | 16.9 fold | 1910 MFI | 35.2 ratio | 67000 MFI |
| variant CD80 IgV-Fc (inert) H18V/A26P/E35D/M47L/V68M/A71G (Fc fusion, not shown: inert human IgG1 Fc) VIHVTKEVKEVATLSCGVNVSVEELPQTRIYWQKDKKMVLTMMSGDLNIWPEYKNRTIFDITNNLSIMILGLRPSDEGTYECVVLKYEKDAFKREHLAEVTLSVKAD | – | – | – | 24 fold | 16200 MFI | 318 fold | 11.7 fold | 2450 MFI | 21.4 ratio | 52400 MFI |
| variant CD80 IgV-Fc (inert) H18V/A26D/E35D/M47V/V68M/A71G/D90G (Fc fusion, not shown: inert human IgG1 Fc) VIHVTKEVKEVATLSCGVNVSVEELDQTRIYWQKDKKMVLTMMSGDVNIWPEYKNRTIFDITNNLSIMILGLRPSDEGTYECVVLKYEKGAFKREHLAEVTLSVKAD | – | – | – | 61.3 fold | 22100 MFI | 409 fold | 16 fold | 6250 MFI | 10.8 ratio | 67500 MFI |
| variant CD80 IgV-Fc (inert) H18L/A26N/D46E/V68M/A71G/D90G (Fc fusion, not shown: inert human IgG1 Fc) VIHVTKEVKEVATLSCGLNVSVEELNQTRIYWQKEKKMVLTMMSGEMNIWPEYKNRTIFDITNNLSIMILGLRPSDEGTYECVVLKYEKGAFKREHLAEVTLSVKAD | – | – | – | 71.1 fold | 17000 MFI | 412 fold | 12.3 fold | 7250 MFI | 9.4 ratio | 68000 MFI |
| variant CD80 IgV-Fc (inert) H18V/A26K/E35D/M47L/V68M/A71G (Fc fusion, not shown: inert human IgG1 Fc) VIHVTKEVKEVATLSCGVNVSVEELKQTRIYWQKDKKMVLTMMSGDLNIWPEYKNRTIFDITNNLSIMILGLRPSDEGTYECVVLKYEKDAFKREHLAEVTLSVKAD | – | – | – | 35.7 fold | 22900 MFI | 408 fold | 16.6 fold | 3640 MFI | 18.5 ratio | 67300 MFI |
| variant CD80 IgV-Fc (inert) H18V/A26G/E35D/M47V/V68M/A71G/D90G (Fc fusion, not shown: inert human IgG1 Fc) VIHVTKEVKEVATLSCGVNVSVEELGQTRIYWQKDKKMVLTMMSGDVNIWPEYKNRTIFDITNNLSIMILGLRPSDEGTYECVVLKYEKGAFKREHLAEVTLSVKAD | – | – | – | 80.3 fold | 25400 MFI | 401 fold | 18.4 fold | 8190 MFI | 8.1 ratio | 66200 MFI |
| CD80 M47V/V68M/K89N IgV-Fc (Fc fusion, not shown: small tags and cut ends; a dimerising Fc or GST) VIHVTKEVKEVATLSCGHNVSVEELAQTRIYWQKEKKMVLTMMSGDVNIWPEYKNRTIFDITNNLSIMILALRPSDEGTYECVVLKYENDAFKREHLAEVTLSVKAD | 1320 MFI | 24800 MFI | 11800 MFI | – | – | – | – | – | – | – |
| variant CD80 IgV-Fc (inert) H18L/E35D/M47V/V68M/A71G/D90G (Fc fusion, not shown: inert human IgG1 Fc) VIHVTKEVKEVATLSCGLNVSVEELAQTRIYWQKDKKMVLTMMSGDVNIWPEYKNRTIFDITNNLSIMILGLRPSDEGTYECVVLKYEKGAFKREHLAEVTLSVKAD | – | – | – | 62.2 fold | 20300 MFI | 392 fold | 14.7 fold | 6350 MFI | 10.2 ratio | 64800 MFI |
| variant CD80 IgV-Fc (inert) H18F/A26N/E35D/M47V/V68M/A71G/D90K (Fc fusion, not shown: inert human IgG1 Fc) VIHVTKEVKEVATLSCGFNVSVEELNQTRIYWQKDKKMVLTMMSGDVNIWPEYKNRTIFDITNNLSIMILGLRPSDEGTYECVVLKYEKKAFKREHLAEVTLSVKAD | – | – | – | 31.1 fold | 15200 MFI | 136 fold | 11 fold | 3170 MFI | 7.1 ratio | 22400 MFI |
| variant CD80 IgV-Fc (inert) H18I/A26P/E35D/M47V/V68M/A71G (Fc fusion, not shown: inert human IgG1 Fc) VIHVTKEVKEVATLSCGINVSVEELPQTRIYWQKDKKMVLTMMSGDVNIWPEYKNRTIFDITNNLSIMILGLRPSDEGTYECVVLKYEKDAFKREHLAEVTLSVKAD | – | – | – | 25.2 fold | 21900 MFI | 393 fold | 15.8 fold | 2570 MFI | 25.2 ratio | 64900 MFI |
